Laboratory results reported in patent US20190185581A1 (University of California, published 2019).

Tests used:
[1] = target: T1, catalytic domain of MMP-14 (cdMMP-14) (human, UniProt P50281 114-287, limits assumed, biotinylated (Sulfo-NHS-LC-Biotin) where immobilised via streptavidin); experiment: cell-based or functional assay
[2] = target: T1, catalytic domain of MMP-14 (cdMMP-14); experiment: ELISA, Fab titrated on immobilised biotin-cdMMP-14, anti-Fab-HRP
[3] = target: T1, catalytic domain of MMP-14 (cdMMP-14); experiment: SPR (Biacore), KD from koff/kon
[4] = target: T1, catalytic domain of MMP-14 (cdMMP-14); experiment: surface plasmon resonance (Biacore), MMP-14 immobilised on the chip, Fab 3A2 injected at 15 nM; table beside the sensorgrams
[5] = target: T1, catalytic domain of MMP-14 (cdMMP-14); experiment: summary sentence on the Examples; enzyme inhibition
[6] = target: MMP-14 catalytic domain mutant F204A (human, UniProt P50281 114-287, limits assumed); experiment: cell-based or functional assay
[7] = target: T2, MMP-14 catalytic domain mutant F260A (human, UniProt P50281 114-287, limits assumed); experiment: cell-based or functional assay
[8] = target: MMP-14 catalytic domain mutant Y203A (human, UniProt P50281 114-287, limits assumed); experiment: cell-based or functional assay
[9] = target: MMP-14 catalytic domain mutant N231A (human, UniProt P50281 114-287, limits assumed); experiment: cell-based or functional assay
[10] = target: MMP-14 catalytic domain mutant T190A (human, UniProt P50281 114-287, limits assumed); experiment: cell-based or functional assay
[11] = target: MMP-14 catalytic domain mutant F198A (human, UniProt P50281 114-287, limits assumed); experiment: cell-based or functional assay
[12] = target: T2, MMP-14 catalytic domain mutant F260A; experiment: competitive ELISA: 10 nM Fab 3A2 incubated with the mutant, then captured on immobilised wild-type MMP-14
Description: (§1) Bound Fabs were detected using the anti-Fab-HRP conjugate. The half-maximal effective concentration (EC₅₀) was calculated from a four-parametric logistic curve-fitting analysis.

[13] = target: T1, catalytic domain of MMP-14 (cdMMP-14); experiment: summary sentence on the Examples; method not given
[14] = target: T1, catalytic domain of MMP-14 (cdMMP-14); experiment: surface plasmon resonance (Biacore), MMP-14 immobilised on the chip, Fab 3A2 injected at 20 nM; table beside the sensorgrams
[15] = target: T3, catalytic domain of MMP-9 (cdMMP-9) (human, UniProt P14780 107-443, limits assumed); experiment: ELISA, purified Fab at 50, 100, 250 and 500 nM on immobilised MMP catalytic domain, anti-Fab-HRP, OD450
T3 sequence: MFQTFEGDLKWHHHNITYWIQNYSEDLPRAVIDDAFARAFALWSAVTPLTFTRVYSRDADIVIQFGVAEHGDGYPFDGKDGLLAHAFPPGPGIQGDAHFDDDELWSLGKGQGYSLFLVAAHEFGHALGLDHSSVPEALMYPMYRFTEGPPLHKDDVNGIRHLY

[16] = target: catalytic domain of MMP-2 (human, UniProt P08253 115-449, limits assumed, biotinylated (Sulfo-NHS-LC-Biotin)); experiment: as above
[17] = target: T1, catalytic domain of MMP-14 (cdMMP-14); experiment: surface plasmon resonance (Biacore), MMP-14 immobilised on the chip, Fab 3A2 injected at 10 nM; table beside the sensorgrams
[18] = target: T1, catalytic domain of MMP-14 (cdMMP-14); experiment: cell-based or functional assay; remark: listed apart in the source
[19] = target: T1, catalytic domain of MMP-14 (cdMMP-14); experiment: ELISA, Fab titrated on immobilised MMP-14 catalytic domain, anti-Fab-HRP
Description: as §1

[20] = target: T1, catalytic domain of MMP-14 (cdMMP-14); experiment: SPR (Biacore), MMP-14 amine-coupled to the chip, Fab as analyte, 25 °C

Chain of catalytic domain of MMP-2 (P08253 other isoform, or with tags, fused parts or gaps limits assumed): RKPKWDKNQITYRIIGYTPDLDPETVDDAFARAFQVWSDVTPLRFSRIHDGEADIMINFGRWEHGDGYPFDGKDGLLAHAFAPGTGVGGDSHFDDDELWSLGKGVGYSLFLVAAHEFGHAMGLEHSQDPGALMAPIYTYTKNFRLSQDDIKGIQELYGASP

Inhibition potency (FRET IC50) [1]: 9.7 nM
EC50 [2]: 3.8 nM
Kd [3]: 4.76 nM
Kd [4]: 3.64 nM
koff [4]: 0.00125 s⁻¹
kon [4]: 344000 M⁻¹ s⁻¹
Ki [5]: 10 nM
inhibition (%) of peptide cleavage: 50 nM MMP-14 mutant, 5 uM Fab 3A2, 1 uM quenched fluorescent substrate [6]: 96%
inhibition (%) of peptide cleavage: 50 nM MMP-14 mutant, 5 uM Fab 3A2, 1 uM quenched fluorescent substrate [7]: 0%
inhibition (%) of peptide cleavage: 50 nM MMP-14 mutant, 5 uM Fab 3A2, 1 uM quenched fluorescent substrate [8]: 98%
inhibition (%) of peptide cleavage: 50 nM MMP-14 mutant, 5 uM Fab 3A2, 1 uM quenched fluorescent substrate [9]: 90%
inhibition (%) of peptide cleavage: 50 nM MMP-14 mutant, 5 uM Fab 3A2, 1 uM quenched fluorescent substrate [10]: 95%
inhibition (%) of peptide cleavage: 50 nM MMP-14 mutant, 5 uM Fab 3A2, 1 uM quenched fluorescent substrate [11]: 98%
binding result [12]: no binding (tested: 0-2,000 nM mutant)
Kd [13]: 4.85 nM
Kd [14]: 9.17 nM
koff [14]: 0.00347 s⁻¹
kon [14]: 378000 M⁻¹ s⁻¹
binding result [15]: no binding (tested: 500 nM)
binding result [16]: no binding (tested: 500 nM)
Kd [17]: 1.74 nM
koff [17]: 0.000667 s⁻¹
kon [17]: 383000 M⁻¹ s⁻¹
IC50 by FRET Assay [18]: 9.7 nM
EC50 [19]: 3.8 nM
koff [20]: 0.00179 s⁻¹
kon [20]: 368000 M⁻¹ s⁻¹
B1: Fab 3A2 (Fab, V domains shown)
VH: EVQLVESGGGLVQPGGSLRLSCAASGFNLSSSSMHWVRQAPGKGLEWVASIYPSYSYTYYADSVKGRFTISADTSKNTAYLQMNSLRAEDTAVYYCARVKLQKDKSHQWIRNLVATPYGRYVMDYWGQGTLVTVSS
VL: DIQMTQSPSSLSASVGDRVTITCRASQSVSSAVAWYQQKPGKAPKLLIYSASSLYSGVPSRFSGSRSGTDFTLTISSLQPEDFATYYCQQYGYPITFGQGTKVEIKR
notes: also called R3C9; not shown: His tag at the C-terminus of the heavy chain
